Data on three molecules can be found in patent US20040101829A1 (UNIVERSITY OF IOWA RESEARCH FOUNDATION, published 2004).

B3: Purified recombinant HCV envelope glycoprotein E2 (Ala 384-Lys 715) (other)
chain: ETHVTGGSAGHTVSGFVSLLAPGAKQNVQLINTNGSWHLNSTALNCNDSLNTGWLAGLFYHHKFNSSGCPERLASCRPLTDFDQGWGPISYANGSGPDQRPYCWHYPPKPCGIVPAKSVCGPVYCFTPSPVVVGTTDRSGAPTYSWGENDTDVFVLNNTRPPLGNWFGCTWMNSTGFTKVCGAPPCVIGGAGNNTLHCPTDCFRKHPDATYSRCGSGPWITPRCLVDYPYRLWHYPCTINYTIFKIRMYVGGVEHRLEAACNWTRGERCDLEDRDRSELSPLLLTTTQWQVLPCSFTTLPALSTGLIHLHQNIVDVQYLYGVGSSIASWAIK
notes: also called HCV E2; HCV-E2

For experiment [1], the target named is T1, apoprotein B (apoB100), delipidized protein (human, UniProt P04114 28-4563).
T1 construct: also called apo-B delipidized protein; apoprotein apoB100
T1 sequence (P04114 28-4563 limits assumed): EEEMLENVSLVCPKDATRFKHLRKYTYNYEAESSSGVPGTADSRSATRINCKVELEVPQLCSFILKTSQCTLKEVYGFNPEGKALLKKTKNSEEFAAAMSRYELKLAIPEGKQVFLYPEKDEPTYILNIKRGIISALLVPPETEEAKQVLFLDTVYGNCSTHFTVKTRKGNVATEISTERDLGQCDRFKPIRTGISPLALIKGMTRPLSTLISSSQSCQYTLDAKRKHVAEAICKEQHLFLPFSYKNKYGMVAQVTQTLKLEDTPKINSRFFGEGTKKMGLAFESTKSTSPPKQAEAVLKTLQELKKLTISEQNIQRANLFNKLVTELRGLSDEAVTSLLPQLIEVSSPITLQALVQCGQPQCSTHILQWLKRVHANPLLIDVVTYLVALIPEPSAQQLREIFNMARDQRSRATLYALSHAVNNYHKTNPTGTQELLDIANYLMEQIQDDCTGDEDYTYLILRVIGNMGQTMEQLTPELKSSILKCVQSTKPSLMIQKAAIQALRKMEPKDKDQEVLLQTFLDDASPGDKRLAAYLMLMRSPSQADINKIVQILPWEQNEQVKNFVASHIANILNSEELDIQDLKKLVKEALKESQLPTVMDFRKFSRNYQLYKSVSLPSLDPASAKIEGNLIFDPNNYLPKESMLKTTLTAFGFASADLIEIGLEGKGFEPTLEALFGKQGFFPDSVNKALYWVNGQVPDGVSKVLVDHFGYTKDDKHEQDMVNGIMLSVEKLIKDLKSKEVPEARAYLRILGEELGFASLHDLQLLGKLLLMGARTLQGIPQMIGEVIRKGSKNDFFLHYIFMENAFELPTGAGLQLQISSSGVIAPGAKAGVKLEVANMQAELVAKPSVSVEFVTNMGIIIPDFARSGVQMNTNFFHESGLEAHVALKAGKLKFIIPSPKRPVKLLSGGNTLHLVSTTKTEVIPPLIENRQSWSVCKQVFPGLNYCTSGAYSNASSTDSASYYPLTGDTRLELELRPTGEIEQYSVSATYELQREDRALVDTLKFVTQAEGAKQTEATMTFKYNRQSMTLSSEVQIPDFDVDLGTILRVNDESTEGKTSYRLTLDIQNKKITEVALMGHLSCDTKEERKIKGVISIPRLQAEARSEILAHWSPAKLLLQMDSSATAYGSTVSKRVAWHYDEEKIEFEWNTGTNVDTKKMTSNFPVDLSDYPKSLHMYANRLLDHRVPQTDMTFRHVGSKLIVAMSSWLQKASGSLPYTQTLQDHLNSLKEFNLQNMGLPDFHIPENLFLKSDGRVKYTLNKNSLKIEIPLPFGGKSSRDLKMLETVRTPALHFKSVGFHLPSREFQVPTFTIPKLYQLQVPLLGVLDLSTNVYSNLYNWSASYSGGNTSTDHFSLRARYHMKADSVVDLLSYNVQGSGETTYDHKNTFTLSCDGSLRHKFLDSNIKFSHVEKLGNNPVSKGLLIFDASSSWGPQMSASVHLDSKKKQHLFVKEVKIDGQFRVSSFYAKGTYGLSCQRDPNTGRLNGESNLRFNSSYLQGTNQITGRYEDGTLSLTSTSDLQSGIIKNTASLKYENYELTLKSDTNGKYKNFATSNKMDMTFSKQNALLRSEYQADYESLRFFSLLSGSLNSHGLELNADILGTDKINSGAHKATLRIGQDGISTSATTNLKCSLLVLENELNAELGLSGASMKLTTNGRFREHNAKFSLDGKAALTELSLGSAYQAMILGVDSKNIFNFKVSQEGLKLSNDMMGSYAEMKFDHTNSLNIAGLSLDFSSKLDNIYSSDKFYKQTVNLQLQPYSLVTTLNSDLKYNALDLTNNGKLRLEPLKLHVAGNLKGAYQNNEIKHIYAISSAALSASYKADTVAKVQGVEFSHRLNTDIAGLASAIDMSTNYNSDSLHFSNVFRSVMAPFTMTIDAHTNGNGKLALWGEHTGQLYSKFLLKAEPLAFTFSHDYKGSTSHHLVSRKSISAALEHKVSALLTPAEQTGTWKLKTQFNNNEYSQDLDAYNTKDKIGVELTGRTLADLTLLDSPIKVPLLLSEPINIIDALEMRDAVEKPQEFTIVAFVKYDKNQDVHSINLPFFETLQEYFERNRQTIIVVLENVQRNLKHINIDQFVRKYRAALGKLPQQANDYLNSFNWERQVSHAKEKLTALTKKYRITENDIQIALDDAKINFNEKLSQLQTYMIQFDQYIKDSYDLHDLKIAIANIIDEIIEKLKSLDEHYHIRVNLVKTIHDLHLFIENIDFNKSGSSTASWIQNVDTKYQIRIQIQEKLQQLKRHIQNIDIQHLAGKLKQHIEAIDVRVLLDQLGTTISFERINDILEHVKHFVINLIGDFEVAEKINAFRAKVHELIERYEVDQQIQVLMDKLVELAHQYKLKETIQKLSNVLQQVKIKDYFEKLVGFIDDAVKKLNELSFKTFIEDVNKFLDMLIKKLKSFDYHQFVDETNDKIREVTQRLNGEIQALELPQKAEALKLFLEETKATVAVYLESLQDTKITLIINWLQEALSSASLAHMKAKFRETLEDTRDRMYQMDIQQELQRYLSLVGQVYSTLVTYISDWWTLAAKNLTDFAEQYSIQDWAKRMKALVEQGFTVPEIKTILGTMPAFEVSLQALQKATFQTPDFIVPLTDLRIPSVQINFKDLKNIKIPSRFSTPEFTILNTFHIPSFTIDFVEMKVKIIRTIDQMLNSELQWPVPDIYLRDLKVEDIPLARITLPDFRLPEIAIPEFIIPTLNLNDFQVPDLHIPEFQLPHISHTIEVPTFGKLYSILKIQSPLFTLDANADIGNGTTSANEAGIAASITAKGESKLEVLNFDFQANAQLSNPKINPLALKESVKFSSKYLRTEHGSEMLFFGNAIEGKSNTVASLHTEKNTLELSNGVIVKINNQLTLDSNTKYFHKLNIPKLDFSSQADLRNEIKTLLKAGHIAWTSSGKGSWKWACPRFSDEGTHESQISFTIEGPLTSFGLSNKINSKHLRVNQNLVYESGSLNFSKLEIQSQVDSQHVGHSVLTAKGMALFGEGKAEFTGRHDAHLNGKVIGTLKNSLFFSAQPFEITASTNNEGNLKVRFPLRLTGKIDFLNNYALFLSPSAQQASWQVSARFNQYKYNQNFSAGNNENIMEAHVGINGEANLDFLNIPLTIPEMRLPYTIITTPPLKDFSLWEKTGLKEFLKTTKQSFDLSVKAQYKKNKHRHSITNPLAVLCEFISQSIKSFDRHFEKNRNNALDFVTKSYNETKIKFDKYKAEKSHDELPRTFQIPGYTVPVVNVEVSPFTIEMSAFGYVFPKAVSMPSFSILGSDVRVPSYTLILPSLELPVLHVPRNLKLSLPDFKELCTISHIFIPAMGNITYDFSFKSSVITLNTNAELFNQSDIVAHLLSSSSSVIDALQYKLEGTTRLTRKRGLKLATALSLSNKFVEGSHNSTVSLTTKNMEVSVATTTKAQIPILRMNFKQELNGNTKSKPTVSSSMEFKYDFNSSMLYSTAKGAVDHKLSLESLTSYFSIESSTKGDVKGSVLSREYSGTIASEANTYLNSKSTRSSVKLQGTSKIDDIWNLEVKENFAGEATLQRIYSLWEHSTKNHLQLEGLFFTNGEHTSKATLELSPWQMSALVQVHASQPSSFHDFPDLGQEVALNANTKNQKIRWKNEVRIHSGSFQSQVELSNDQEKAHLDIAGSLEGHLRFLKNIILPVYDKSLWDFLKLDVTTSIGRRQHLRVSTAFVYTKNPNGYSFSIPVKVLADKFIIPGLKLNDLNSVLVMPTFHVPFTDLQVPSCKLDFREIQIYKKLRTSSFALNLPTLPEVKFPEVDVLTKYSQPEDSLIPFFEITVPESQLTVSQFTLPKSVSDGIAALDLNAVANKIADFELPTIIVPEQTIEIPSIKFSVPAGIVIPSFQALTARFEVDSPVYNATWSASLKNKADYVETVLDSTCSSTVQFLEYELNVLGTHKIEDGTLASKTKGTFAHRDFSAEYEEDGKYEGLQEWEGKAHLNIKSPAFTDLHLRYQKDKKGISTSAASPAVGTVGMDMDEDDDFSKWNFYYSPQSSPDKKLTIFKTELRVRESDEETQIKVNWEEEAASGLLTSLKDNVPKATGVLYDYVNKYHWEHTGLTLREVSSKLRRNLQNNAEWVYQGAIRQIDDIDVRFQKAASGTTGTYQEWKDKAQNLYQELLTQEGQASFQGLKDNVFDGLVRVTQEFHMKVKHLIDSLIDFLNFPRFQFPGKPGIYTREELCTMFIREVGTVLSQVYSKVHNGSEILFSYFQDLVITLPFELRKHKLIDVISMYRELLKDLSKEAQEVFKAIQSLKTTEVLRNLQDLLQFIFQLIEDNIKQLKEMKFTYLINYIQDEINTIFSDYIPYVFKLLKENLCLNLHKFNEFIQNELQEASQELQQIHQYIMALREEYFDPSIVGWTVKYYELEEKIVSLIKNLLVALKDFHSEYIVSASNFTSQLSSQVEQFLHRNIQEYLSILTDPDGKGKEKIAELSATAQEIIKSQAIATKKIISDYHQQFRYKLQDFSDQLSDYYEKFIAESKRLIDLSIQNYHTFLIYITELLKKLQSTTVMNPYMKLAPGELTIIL
Nature of the experiment: flow cytometry on MOLT-4 cells, cell-bound apoB detected with goat polyclonal antibody.

Experiment [2] addresses B3. Nature of the experiment: flow cytometry, recombinant E2 on mouse 3T3 cells expressing only murine CD81. (In general: Flow cytometry measures light scatter and fluorescence of single cells or particles in a stream.)
Experiment [3] concerns the target T1, apoprotein B (apoB100), delipidized …. Nature of the experiment: flow cytometry on MOLT-4 cells incubated with E2, apo-B delipidized protein and E2/apoB; cell-bound E2 detected with antibody 108.

B1: human low density lipoprotein receptor (LDLr) on MOLT-4 cells (receptor)
chain: not shown
notes: whole, on cells; also called human LDLr; hLDLr
Regarding B1, the binding result in experiment [1] is on record as “binds”.

B2: murine CD81 on parental (control) mouse 3T3 cells (receptor, UniProt P35762 1-236, looked up)
chain: MGVEGCTKCIKYLLFVFNFVFWLAGGVILGVALWLRHDPQTTSLLYLELGNKPAPNTFYVGIYILIAVGAVMMFVGFLGCYGAIQESQCLLGTFFTCLVILFACEVAAGIWGFVNKDQIAKDVKQFYDQALQQAVMDDDANNAKAVVKTFHETLNCCGSNALTTLTTTILRNSLCPSGGNILTPLLQQDCHQKIDELFSGKLYLIGIAAIVVAVIMIFEMILSMVLCCGIRNSSVY
notes: whole, on cells; also called control 3T3 cells
For B2, the binding result in experiment [2] is listed as “no binding”.

B3: the binding result in experiment [3] is recorded as “no binding”.
